The results in this text go back to patent US10682388B2, “Targeting of PELP1 in cancer therapy” (THE BOARD OF REGENTS OF THE UNIVERSITY OF TEXAS SYSTEM, priority 2014, dated 2020).

In test [1] the target is PELP1 (Homo sapiens, UniProt Q8IZL8). The test can be described thus: Peptide pull-down assay, biotin-tagged peptides on avidin beads with nuclear lysates from ZR75 cells. In kind it is binding. The conditions noted are these: one hour, FIG. 1D. The procedure: FIGS. 1A-D. (FIG. 1A) Diagram for yeast two hybrid screen to identify PELP1 binding peptides. Four regions of PELP1 were tagged with the binding domain and a library of 10^6 random peptides (Clontech) were bound to an activation domain. The number of positive colonies per region of PELP1 are shown in the graph. (FIG. 1B) A proliferation assay was performed with […]1 cells plated in a 96 well plate, treated with peptide every 3 days and absorbance was measured at 7 days. (FIG. 1C) ZR75 were plated in a 6-well plate on coverslips in 8% RPMI and treated with 10 uM FITC labeled peptide for 30, 60, or 120 minutes. They were then fixed with pararformaldehyde, stained for PELP1 (red) and DAPI (blue), and imaged by confocal microscopy to monitor intracellular delivery. (FIG. 1D) ZR75 cells were starved of estrogen for 72 hours and treated with estradiol 10^-7 M for 12 hours. Nuclear lysate was incubated with biotin-tagged peptides bound to avidin beads for one hour. Beads were washed, run on SDS-PAGE gel and probed for PELP1 expression. Input of nuclear lysate is shown as control. Peptides were linked to EZ-Link NHS-Biotin (Thermo Scientific) per manutfacturer's protocol. […] Beads were washed 3× with IP buffer (20 mM HEPES pH 7.9, 20% glycerol, 0.1% triton-x, 100 mM KCl), eluted with SDS-dye, and PELP1 expression was determined by western blotting. […]

For test [2], the target named is T1, PELP1-G9a complex (Homo sapiens, UniProt Q8IZL8).
T1 construct: purified bacterial, full-length PELP1; host or cells: bacteria (PELP1)
The test can be described thus: In vitro peptide competition assay, G9a-GST on glutathione beads with purified PELP1. In kind it is binding. The conditions noted are these: peptides 2, 5, 10 μM, 2 hours, FIGS. 2C, 7B, 9. The procedure:
(§1) FIGS. 2A-D. (FIG. 2A) Immunoprecipitation was performed on nuclear lysates obtained from ZRPELP1 cells grown in 5% DCC for 72 hours and treated with estradiol 10^−7 M for 12 hours. PELP1 was immunoprecipitated and western blotting was performed for PELP1 and G9a expression with IgG as the control. (FIG. 2B) Various fragments of PELP1 bound to glutathione beads were incubated with recombinant G9a for 2 hours. Beads were washed, run on an SDS-PAGE gel and immunoblotted for G9a expression. GST tag alone is shown as control. (FIG. 2C) Recombinant G9a-GST was bound to glutathione beads and incubated with purified PELP1 and peptides for 2 hours. Beads were washed and run on SDS-PAGE gel. (FIG. 2D) ZR75 cells were transfected with ERE-luciferase, PELP1 and/or G9a plasmids and treated with peptide for 24 hours and estradiol 10^−7 M for 12 hours. Relative luciferase activity is shown.
FIGS. 7A-E. (FIG. 7A) Bacterial purified PELP1 was incubated with biotin-tagged peptides bound to avidin beads for one hour. Beads were washed, run on SDS-PAGE gel and probed for PELP1 expression. Input of bacterial PELP1 is shown as control. (FIG. 7B) Recombinant G9a-GST was bound to glutathione beads and incubated with purified PELP1 and peptides for 2 hours. Beads were washed and run on SDS-PAGE gel. (+2 μM, ++5 μM, +++10 μM). (FIG. 7C) ZRGST and ZRPELP1GST cells were transfected in triplicate with TopFlash β-catenin reporter and treated with TAT or PIP1 (10 μM) for 24 hours. Relative luciferase activity is shown. (FIG. 7D) MCF7vec and MCF7PELP1 cells were treated with TAT or PIP1 (10 μM) and toxicity was measured by CytoTox-Flour Cytotoxicity Assay. (FIG. 7E) ZR75 and ZR75PELP1 cells were treated with TAT, PIP1 or PIP2 for 24 hours and immunoblotted for PELP1 and ERα expression with actin as the loading control.
FIG. 9. […]
Peptides were linked to EZ-Link NHS-Biotin (Thermo Scientific) per manutfacturer's protocol. […] Beads were washed 3× with IP buffer (20 mM HEPES pH 7.9, 20% glycerol, 0.1% triton-x, 100 mM KCl), eluted with SDS-dye, and PELP1 expression was determined by western blotting. […]

The subject of test [3] is ERE-luciferase in ZR75 cells. Description: ERE-luciferase reporter gene assay in ZR75 cells transfected with PELP1 and/or G9a. Type of test: cell-based, Human. Conditions: FIG. 2D. The procedure: as §1
Model cells were seeded in 6-well plates. After overnight incubation, the cells were transfected with ERE-Luc plasmids using fugene for 6 h. Then, 24 hours after transfection, cells were incubated in 5% DCC media for estrogen starvation and then treated with TAT or PIP1/PIP2 for an additional 24 hours and estradiol (10^−8) for 12 hours. […] Luciferase activity was measured by using the luciferase assay system (Promega, Madison, Wis.).
In general terms: In a reporter assay the amount or activity of a reporter protein is the signal.

T1 sequence (Q8IZL8 2-1130, one chain of several): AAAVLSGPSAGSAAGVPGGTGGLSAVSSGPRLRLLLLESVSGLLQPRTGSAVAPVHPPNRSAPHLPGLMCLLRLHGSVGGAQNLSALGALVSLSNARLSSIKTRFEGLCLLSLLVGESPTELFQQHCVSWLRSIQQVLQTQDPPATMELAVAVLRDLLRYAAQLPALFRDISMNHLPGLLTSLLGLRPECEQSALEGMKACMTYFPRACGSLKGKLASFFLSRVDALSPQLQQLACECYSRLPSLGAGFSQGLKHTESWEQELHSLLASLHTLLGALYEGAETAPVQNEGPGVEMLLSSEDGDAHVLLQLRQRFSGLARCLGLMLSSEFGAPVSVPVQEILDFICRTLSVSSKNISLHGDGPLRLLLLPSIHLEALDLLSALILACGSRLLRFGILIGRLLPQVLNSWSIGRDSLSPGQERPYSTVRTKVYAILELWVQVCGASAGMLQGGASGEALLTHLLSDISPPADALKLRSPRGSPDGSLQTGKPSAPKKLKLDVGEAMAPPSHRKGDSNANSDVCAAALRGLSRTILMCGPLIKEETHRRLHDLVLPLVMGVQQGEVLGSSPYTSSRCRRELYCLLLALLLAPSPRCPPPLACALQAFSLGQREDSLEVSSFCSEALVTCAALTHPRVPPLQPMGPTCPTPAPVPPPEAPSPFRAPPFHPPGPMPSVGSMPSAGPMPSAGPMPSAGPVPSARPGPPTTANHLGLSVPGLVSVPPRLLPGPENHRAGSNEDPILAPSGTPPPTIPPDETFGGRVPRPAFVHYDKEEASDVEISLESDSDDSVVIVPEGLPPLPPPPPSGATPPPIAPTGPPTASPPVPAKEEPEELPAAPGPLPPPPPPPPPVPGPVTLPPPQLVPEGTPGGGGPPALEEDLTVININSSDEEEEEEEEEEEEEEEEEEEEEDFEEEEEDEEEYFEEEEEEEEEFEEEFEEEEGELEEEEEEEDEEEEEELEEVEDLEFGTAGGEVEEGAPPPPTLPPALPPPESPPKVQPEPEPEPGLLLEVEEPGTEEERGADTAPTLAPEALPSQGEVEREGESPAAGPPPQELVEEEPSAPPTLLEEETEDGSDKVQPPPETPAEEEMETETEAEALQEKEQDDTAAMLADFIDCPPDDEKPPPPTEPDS
Chain of PELP1 (Q8IZL8 whole entry, the tested form may be a part): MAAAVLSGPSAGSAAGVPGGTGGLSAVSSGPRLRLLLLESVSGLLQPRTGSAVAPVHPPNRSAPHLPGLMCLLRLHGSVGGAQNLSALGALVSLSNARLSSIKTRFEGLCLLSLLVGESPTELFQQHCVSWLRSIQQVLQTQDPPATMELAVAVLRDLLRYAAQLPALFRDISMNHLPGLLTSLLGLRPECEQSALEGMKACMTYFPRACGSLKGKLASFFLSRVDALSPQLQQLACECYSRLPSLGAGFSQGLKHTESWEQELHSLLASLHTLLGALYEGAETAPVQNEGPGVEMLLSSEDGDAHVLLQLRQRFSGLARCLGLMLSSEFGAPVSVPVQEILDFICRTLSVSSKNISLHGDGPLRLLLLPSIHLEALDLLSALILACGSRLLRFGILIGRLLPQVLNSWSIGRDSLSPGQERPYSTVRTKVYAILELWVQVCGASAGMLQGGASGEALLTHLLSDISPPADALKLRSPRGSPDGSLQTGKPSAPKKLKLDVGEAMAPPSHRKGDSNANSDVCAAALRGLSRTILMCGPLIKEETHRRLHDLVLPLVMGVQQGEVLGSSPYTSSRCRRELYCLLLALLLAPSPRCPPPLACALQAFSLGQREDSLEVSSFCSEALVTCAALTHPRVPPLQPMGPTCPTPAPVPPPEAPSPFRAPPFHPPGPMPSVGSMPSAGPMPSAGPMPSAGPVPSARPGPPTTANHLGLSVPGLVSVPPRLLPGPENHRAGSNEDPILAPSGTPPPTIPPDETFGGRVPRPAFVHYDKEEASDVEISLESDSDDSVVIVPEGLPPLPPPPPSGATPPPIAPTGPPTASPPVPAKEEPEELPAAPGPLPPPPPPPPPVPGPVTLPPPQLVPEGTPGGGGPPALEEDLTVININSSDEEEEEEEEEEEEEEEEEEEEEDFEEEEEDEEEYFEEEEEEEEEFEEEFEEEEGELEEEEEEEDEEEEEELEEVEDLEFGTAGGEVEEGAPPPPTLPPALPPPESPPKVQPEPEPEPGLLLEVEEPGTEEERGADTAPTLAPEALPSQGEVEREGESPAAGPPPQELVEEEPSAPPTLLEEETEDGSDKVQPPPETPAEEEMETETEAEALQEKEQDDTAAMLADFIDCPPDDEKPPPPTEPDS

Consider GRKKRRQRRRGGMVEFRWSCPGRRKAKA [PIP1], for which, in test [1], the “affinity to bind to PELP1 in peptide pull-down” value is reported as “higher affinity to bind to PELP1 than PIP2”. In test [2], the “disruption of PELP1 interaction with G9a/EHMT2” value is recorded as “disrupted by the addition of either of the two peptides in a dose-dependent manner”. Further, the “estrogen response synergistically activated by PELP1 and G9a (ERE-luciferase)” value in test [3] was “inhibited”.
